Results on two molecules are retold here after publication PMC9365860 (Cell Reports, 2022).

Like-named read-outs stand apart in the source and are kept apart here.

Assay [1] addresses T1, Full-length SARS-CoV-2 Spike on HEK 293T cells (SARS-CoV-2, UniProt P0DTC2).
T1 construct: source: HEK293T, transfected (pcDNA3.1+), on the cell surface
As to the kind of experiment: flow cytometry on cells. The following applies: one partner purified. (In general: In flow cytometry, cells or beads pass a laser one at a time.)

Assay [2] concerns the target T2, Full-length NL63 Spike on HEK 293T cells (human coronavirus NL63, isolate not …, UniProt Q6Q1S2).
T2 construct: source: HEK293T, transfected (pcDNA3.1+), on the cell surface
As to the kind of experiment: flow cytometry on cells. The note with it: one partner purified.

Assay [3] has as its target T3, Full-length OC43 Spike on HEK 293T cells (human coronavirus OC43, isolate not …, UniProt P36334).
T3 construct: source: HEK293T, transfected (pcDNA3.1+), on the cell surface
Description: flow cytometry on cells. The following applies: one partner purified.

Assay [4] has as its target T4, Full-length 229E Spike on HEK 293T cells (human coronavirus 229E, isolate not …, UniProt P15423).
T4 construct: source: HEK293T, transfected (pcDNA3.1+), on the cell surface
As to the kind of experiment: flow cytometry on cells. The following applies: one partner purified.

The target of assay [5] is T5, Full-length MERS Spike on HEK 293T cells (MERS-CoV, isolate  (entry: …, UniProt K9N5Q8)).
T5 construct: source: HEK293T, transfected (pcDNA3.1+), on the cell surface
As to the kind of experiment: flow cytometry on cells. The following applies: one partner purified.

In assay [6] the target is T6, Full-length SARS-CoV-1 Spike on HEK 293T cells (SARS-CoV-1 (SARS-CoV), isolate not …, UniProt P59594).
T6 construct: source: HEK293T, transfected (pcDNA3.1+), on the cell surface
Description: flow cytometry on cells. The note with it: one partner purified.

Assay [7] deals with T7, Recombinant S1 Wuhan (residues 1–674) (SARS-CoV-2, UniProt P0DTC2).
T7 construct: source: bought: Native Antigen Company
Description: ELISA. The note with it: both partners purified. A general note: An ELISA detects its analyte on a solid surface through an enzyme-linked reagent.

Assay [8] has as its target T1, Full-length SARS-CoV-2 Spike on HEK ….
Assay [9] addresses T7, Recombinant S1 Wuhan (residues 1–674).
The target of assay [10] is Recombinant stabilized SARS-CoV-2 spike for ELISA (Wuhan) (SARS-CoV-2, Wuhan, UniProt P0DTC2, stabilised).
Assay [11] addresses T6, Full-length SARS-CoV-1 Spike on HEK ….

B1: P008_60 IgG (antibody, V domains shown)
VH: EVQLVESGGGVVQPGRSLRLTCAASGFIFSSYGMHWVRQAPGKGLEWVAVISYDGSYKYYADSVKGRFTISRDNSKNTLYLQMNSLRAEDTAVYYCTKADYYDFWSGYQKTYYYYMDVWGKGTTVTISS
VL: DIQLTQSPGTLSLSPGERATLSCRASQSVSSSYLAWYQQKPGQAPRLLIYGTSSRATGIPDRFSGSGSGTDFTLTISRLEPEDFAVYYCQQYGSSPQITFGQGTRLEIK
notes: also called mAb P008_60; P008_060; source: HEK-293F, co-transfected heavy and light plasmids, purified (protein G)
As to B1, the binding result is “binds” in [1]; “no binding (tested: 25 μg/mL)” in assay [2]; “no binding (tested: 25 μg/mL)” in assay [3]; “no binding (tested: 25 μg/mL)” in [4]; “no binding (tested: 25 μg/mL)” in assay [5]; “binds” in assay [6]. The binding result in assay [7] is on record as “binds”.

B2: VA14_47 (antibody, V domains shown)
VH: EVQLVESGGGVVQPGRSLRLSCGGSGFTFSSHAMHWVRQAPGKGLEWVAVISYDGSYQYYADSVKGRFTISRDNSKNALYLQMNSLRVEDTAIYYCARDTPDLETYYFDCWGQGTLVTVSS
VL: EIVMTQSPGTLSLSPGERATLSCRASQSVSSSYLAWYQQKPGQAPRLLIYSACSRATGIPDRFSGSGSGTDFTLTISRLEPEDFAVYYCQQYGDSPRGSFGQGTKVDIK
As to B2, the binding result in assay [8], in assay [9], in assay [10] and in [11] was “binds” each time.
